Reference: patent publication US20260242478A1 (published 2026)
Where no end group is shown, it is not given here.

B1: Phage-2644 (peptide)
peptide: PERMCVPQWMCTVT
modifications: cysteine pairing not given here; also: displayed on phage pIII, linker not given here
notes: Clonal phage of the Peptide-180 library, tested as crude phage supernatant; not shown: pIII filament protein of the bacteriophage
B2: Phage-2656 (peptide)
peptide: AIKWCIPAWMCAQA
modifications: cysteine pairing not given here; also: displayed on phage as pIII fusion
B3: Phage-2643 (peptide)
peptide: VEKLCKPAWMCNGQ
modifications: cysteine pairing not given here; also: displayed on phage pIII, linker not given here
notes: as for B1
B4: Phage-2650 (peptide)
peptide: DVKWCIPPWMCPSF
B5: Phage-2646 (peptide)
peptide: QPKWCTPDWMCTGI
modifications: cysteine pairing not given here; also: displayed on phage as pIII fusion, fusion junction and sequence not given here
notes: as for B1
B6: Phage-2601 (peptide)
peptide: IEKWCMPSWMCEWN
B7: Phage-2634 (peptide)
peptide: TDKLCRPPWMCELM
modifications: cysteine pairing not given here; also: displayed on phage pIII, linker not given here
notes: as for B1
B8: Phage-2599 (peptide)
peptide: LSKWCIPDWMCISS
B9: Phage-2639 (peptide)
peptide: VGNWCTPMWMCQAF
modifications: cysteine pairing not given here; also: displayed on phage pIII, linker not given here
notes: as for B1
B10: Phage-2648 (peptide)
peptide: EYKWCTPIWMCQGN
modifications: cysteine pairing not given here; also: displayed on phage as pIII fusion, fusion junction and sequence not given here
notes: as for B1
B11: Phage-2652 (peptide)
peptide: SNHLCTPPWMCYGF
B12: Phage-2641 (peptide)
peptide: AEKLCIPDWMCDVY
modifications: cysteine pairing not given here; also: displayed on phage pIII, linker not given here
notes: as for B1
B13: Phage-2651 (peptide)
peptide: LQNWCVPAWMCELM
B14: Phage-2657 (peptide)
peptide: LQKWCIPAWMCSST
B15: Phage-2636 (peptide)
peptide: DDRWCIPTWMCFLD
modifications: cysteine pairing not given here; also: displayed on phage pIII, linker not given here
notes: as for B1
B16: Phage-2635 (peptide)
peptide: DMKWCTPAWMCQSS
modifications: cysteine pairing not given here; also: displayed on phage pIII, linker not given here
notes: as for B1
B17: Phage-2658 (peptide)
peptide: MPKWCTPQWMCEMY
B18: Phage-2642 (peptide)
peptide: DLKWCIPSWMCTST
modifications: cysteine pairing not given here; also: displayed on phage pIII, linker not given here
notes: as for B1
B19: Phage-2649 (peptide)
peptide: TWKWCTPAWMCSVM
modifications: cysteine pairing not given here; also: displayed on phage as pIII fusion, fusion junction and sequence not given here
notes: as for B1
B20: Phage-2603 (peptide)
peptide: GMKWCTPEWMCQIV
B21: Phage-2602 (peptide)
peptide: ETKLCKPMWMCALL
modifications: cysteine pairing not given here; also: displayed on phage as pIII fusion
B22: Phage-2600 (peptide)
peptide: SVTWCIPPWMCELS
B23: Phage-2637 (peptide)
peptide: TVKWCTPPWMCEES
modifications: cysteine pairing not given here; also: displayed on phage pIII, linker not given here
notes: as for B1
B24: Phage-2638 (peptide)
peptide: WAKWCTPVWMCQGI
modifications: cysteine pairing not given here; also: displayed on phage pIII, linker not given here
notes: as for B1
B25: Phage-2653 (peptide)
peptide: ETKWCIPVWMCEHK
B26: Phage-2655 (peptide)
peptide: FVNMCKPAWMCSLL
B27: Phage-2654 (peptide)
peptide: HEKWCTPPWMCELI
B28: Phage-2645 (peptide)
peptide: FPKWCTPEWMCSLT
modifications: cysteine pairing not given here; also: displayed on phage pIII, linker not given here
notes: as for B1
B29: Phage-2647 (peptide)
peptide: LVKWCIPDWMCSLS
modifications: cysteine pairing not given here; also: displayed on phage as pIII fusion, fusion junction and sequence not given here
notes: as for B1
B30: Phage-2640 (peptide)
peptide: VPKWCTPEWMCIIH
modifications: cysteine pairing not given here; also: displayed on phage pIII, linker not given here
notes: as for B1

Legend:
PSMA Fab (006 PSMA Fab) [1] = target: T1, PSMA Fab (006 PSMA Fab) (biotinylated (site not given)); test: clonal phage ELISA; biotinylated PSMA Fab on neutravidin plate, wells pre-incubated with PSMA antigen as competitor; anti-M13 HRP detection;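 also: crude clonal phage supernatants added to antigen-treated wells without a wash, incubated briefly, then bound phage read out via horse radish–conjugated anti-M13 antibody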
T1 construct: also called Anti-PSMA Fab; anti-PSMA Fab

PSMA Fab (006 PSMA Fab) [2] = target: T1, PSMA Fab (006 PSMA Fab); test: clonal phage ELISA; biotinylated PSMA Fab on neutravidin plate, blocking buffer alone; anti-M13 HRP detection;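 also: crude clonal phage supernatants added without washing to wells pretreated with blocking buffer with or without PSMA antigen, short incubation, then washed before detecting bound phage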
Description: (§1) Clonal phage were harvested as crude supernatants and screened via standard ELISAs. […] Prior to the addition of clonal phage. wells were incubated with blocking buffer and PSMA antigen or blocking buffer alone. Without washing or aspirating, clonal phage supernatants were then added to the wells and incubated for a short time. Wells were then washed followed by detection of bound phage using a horse radish conjugated anti-M13 antibody.

PSMA Fab [3] = target: T2, PSMA Fab (biotinylated (site not stated)); test: phage ELISA, biotinylated PSMA Fab on neutravidin plate, anti-M13-HRP detection, competitor PSMA antigen pre-incubated
T2 construct: Biotinylated PSMA Fab captured on neutravidin plates in the phage ELISA; also called Anti-PSMA Fab; 006 PSMA Fab

PSMA Fab [4] = target: T2, PSMA Fab; test: phage ELISA, biotinylated PSMA Fab on neutravidin plate, anti-M13-HRP detection, blocking buffer alone
Description: as §1

PSMA Fab [5] = target: T3, PSMA Fab; test: phage binding ELISA; biotinylated PSMA Fab on neutravidin plate, clonal phage supernatant, anti-M13 HRP detection; column read as anti-PSMA Fab without PSMA antigen
T3 construct: also called Anti-PSMA Fab; 006 PSMA Fab
Description: as §1

PSMA Fab [6] = target: T3, PSMA Fab; test: phage binding ELISA; biotinylated PSMA Fab on neutravidin plate, clonal phage supernatant, anti-M13 HRP detection; column read as anti-PSMA Fab pre-incubated with PSMA antigen as competitor
Description: as §1

| Binder | Phage binding ELISA signal, Anti-PSMA Fab with PSMA antigen (PSMA Fab (006 PSMA Fab) [1]) | Phage binding ELISA signal, Anti-PSMA Fab (PSMA Fab (006 PSMA Fab) [2]) | Phage binding ELISA signal, Anti-PSMA Fab with PSMA antigen (PSMA Fab [3]) | Phage binding ELISA signal, Anti-PSMA Fab (PSMA Fab [4]) | other results |
| --- | --- | --- | --- | --- | --- |
| B1 | 0.107 | 0.956 | – | – | – |
| B2 | – | – | 0.0786 | 0.92 | – |
| B3 | 0.0808 | 0.956 | – | – | – |
| B4 | – | – | 0.0771 | 0.944 | – |
| B5 | 0.105 | 0.954 | – | – | – |
| B6 | – | – | – | – | phage binding ELISA signal (PSMA Fab [5]): 1.03; phage binding ELISA signal (PSMA Fab [6]): 0.0609 |
| B7 | 0.065 | 0.966 | – | – | – |
| B8 | – | – | – | – | phage binding ELISA signal (PSMA Fab [5]): 1.04; phage binding ELISA signal (PSMA Fab [6]): 0.0618 |
| B9 | 0.0864 | 0.961 | – | – | – |
| B10 | 0.0626 | 0.95 | – | – | – |
| B11 | – | – | 0.0665 | 0.939 | – |
| B12 | 0.0771 | 0.957 | – | – | – |
| B13 | – | – | 0.068 | 0.941 | – |
| B14 | – | – | 0.0717 | 0.92 | – |
| B15 | 0.0733 | 0.965 | – | – | – |
| B16 | 0.0701 | 0.966 | – | – | – |
| B17 | – | – | 0.0641 | 0.92 | – |
| B18 | 0.0977 | 0.957 | – | – | – |
| B19 | 0.113 | 0.947 | – | – | – |
| B20 | – | – | – | – | phage binding ELISA signal (PSMA Fab [5]): 1.03; phage binding ELISA signal (PSMA Fab [6]): 0.28 |
| B21 | – | – | – | – | phage binding ELISA signal (PSMA Fab [5]): 1.03; phage binding ELISA signal (PSMA Fab [6]): 0.126 |
| B22 | – | – | – | – | phage binding ELISA signal (PSMA Fab [5]): 1.04; phage binding ELISA signal (PSMA Fab [6]): 0.0673 |
| B23 | 0.0943 | 0.964 | – | – | – |
| B24 | 0.136 | 0.961 | – | – | – |
| B25 | – | – | 0.122 | 0.934 | – |
| B26 | – | – | 0.0949 | 0.923 | – |
| B27 | – | – | 0.0717 | 0.929 | – |
| B28 | 0.0592 | 0.955 | – | – | – |
| B29 | 0.0865 | 0.952 | – | – | – |
| B30 | 0.0705 | 0.958 | – | – | – |
